T1: human muscle phosphorylase kinase α subunit (PHKA1), dephosphorylated (human, UniProt P46020 1-1223)
T1 sequence (looked up): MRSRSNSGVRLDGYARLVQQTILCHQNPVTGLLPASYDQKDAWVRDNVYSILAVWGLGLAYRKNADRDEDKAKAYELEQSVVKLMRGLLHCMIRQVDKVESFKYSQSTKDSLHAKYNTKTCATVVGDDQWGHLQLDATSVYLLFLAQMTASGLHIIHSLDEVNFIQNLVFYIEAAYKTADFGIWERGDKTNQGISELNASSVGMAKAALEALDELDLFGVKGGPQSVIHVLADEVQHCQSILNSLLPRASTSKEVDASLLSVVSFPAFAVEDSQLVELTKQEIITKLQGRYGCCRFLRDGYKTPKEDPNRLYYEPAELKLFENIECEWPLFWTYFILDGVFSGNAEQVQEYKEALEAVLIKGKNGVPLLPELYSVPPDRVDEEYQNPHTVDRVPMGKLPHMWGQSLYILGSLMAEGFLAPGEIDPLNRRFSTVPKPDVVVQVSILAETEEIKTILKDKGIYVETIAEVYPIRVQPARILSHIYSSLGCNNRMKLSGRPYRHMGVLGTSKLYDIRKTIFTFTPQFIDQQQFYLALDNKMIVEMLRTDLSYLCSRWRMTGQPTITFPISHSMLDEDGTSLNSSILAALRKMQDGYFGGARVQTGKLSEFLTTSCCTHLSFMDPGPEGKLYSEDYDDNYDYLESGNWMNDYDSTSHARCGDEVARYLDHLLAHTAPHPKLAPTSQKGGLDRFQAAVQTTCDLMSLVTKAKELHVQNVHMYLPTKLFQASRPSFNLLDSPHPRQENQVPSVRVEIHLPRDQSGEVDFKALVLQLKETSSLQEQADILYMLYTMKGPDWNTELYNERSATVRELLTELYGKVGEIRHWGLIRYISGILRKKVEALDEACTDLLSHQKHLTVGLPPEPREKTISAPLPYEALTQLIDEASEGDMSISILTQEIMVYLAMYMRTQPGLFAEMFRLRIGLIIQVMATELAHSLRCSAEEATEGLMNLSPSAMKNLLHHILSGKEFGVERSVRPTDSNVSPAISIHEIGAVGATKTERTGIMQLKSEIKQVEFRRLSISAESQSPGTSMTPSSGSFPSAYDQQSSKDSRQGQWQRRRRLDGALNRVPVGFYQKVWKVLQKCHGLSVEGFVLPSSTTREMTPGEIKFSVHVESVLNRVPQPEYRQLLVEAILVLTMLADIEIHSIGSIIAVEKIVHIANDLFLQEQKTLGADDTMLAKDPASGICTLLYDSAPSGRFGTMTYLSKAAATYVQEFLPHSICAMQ

B1: human muscle glycogen phosphorylase (PYGM) (enzyme, UniProt P11217 1-842, looked up)
chain: MSRPLSDQEKRKQISVRGLAGVENVTELKKNFNRHLHFTLVKDRNVATPRDYYFALAHTVRDHLVGRWIRTQQHYYEKDPKRIYYLSLEFYMGRTLQNTMVNLALENACDEATYQLGLDMEELEEIEEDAGLGNGGLGRLAACFLDSMATLGLAAYGYGIRYEFGIFNQKISGGWQMEEADDWLRYGNPWEKARPEFTLPVHFYGHVEHTSQGAKWVDTQVVLAMPYDTPVPGYRNNVVNTMRLWSAKAPNDFNLKDFNVGGYIQAVLDRNLAENISRVLYPNDNFFEGKELRLKQEYFVVAATLQDIIRRFKSSKFGCRDPVRTNFDAFPDKVAIQLNDTHPSLAIPELMRILVDLERMDWDKAWDVTVRTCAYTNHTVLPEALERWPVHLLETLLPRHLQIIYEINQRFLNRVAAAFPGDVDRLRRMSLVEEGAVKRINMAHLCIAGSHAVNGVARIHSEILKKTIFKDFYELEPHKFQNKTNGITPRRWLVLCNPGLAEVIAERIGEDFISDLDQLRKLLSFVDDEAFIRDVAKVKQENKLKFAAYLEREYKVHINPNSLFDIQVKRIHEYKRQLLNCLHVITLYNRIKREPNKFFVPRTVMIGGKAAPGYHMAKMIIRLVTAIGDVVNHDPAVGDRLRVIFLENYRVSLAEKVIPAADLSEQISTAGTEASGTGNMKFMLNGALTIGTMDGANVEMAEEAGEENFFIFGMRVEDVDKLDQRGYNAQEYYDRIPELRQVIEQLSSGFFSPKQPDLFKDIVNMLMHHDRFKVFADYEDYIKCQEKVSALYKNPREWTRMVIRNIATSGKFSSDRTIAQYAREIWGVEPSRQRLPAPDEAI
B2: human phosphorylase kinase β subunit (PHKB), dephosphorylated (natural protein, UniProt Q93100 1-1093, looked up)
chain: MAGAAGLTAEVSWKVLERRARTKRSGSVYEPLKSINLPRPDNETLWDKLDHYYRIVKSTLLLYQSPTTGLFPTKTCGGDQKAKIQDSLYCAAGAWALALAYRRIDDDKGRTHELEHSAIKCMRGILYCYMRQADKVQQFKQDPRPTTCLHSVFNVHTGDELLSYEEYGHLQINAVSLYLLYLVEMISSGLQIIYNTDEVSFIQNLVFCVERVYRVPDFGVWERGSKYNNGSTELHSSSVGLAKAALEAINGFNLFGNQGCSWSVIFVDLDAHNRNRQTLCSLLPRESRSHNTDAALLPCISYPAFALDDEVLFSQTLDKVVRKLKGKYGFKRFLRDGYRTSLEDPNRCYYKPAEIKLFDGIECEFPIFFLYMMIDGVFRGNPKQVQEYQDLLTPVLHHTTEGYPVVPKYYYVPADFVEYEKNNPGSQKRFPSNCGRDGKLFLWGQALYIIAKLLADELISPKDIDPVQRYVPLKDQRNVSMRFSNQGPLENDLVVHVALIAESQRLQVFLNTYGIQTQTPQQVEPIQIWPQQELVKAYLQLGINEKLGLSGRPDRPIGCLGTSKIYRILGKTVVCYPIIFDLSDFYMSQDVFLLIDDIKNALQFIKQYWKMHGRPLFLVLIREDNIRGSRFNPILDMLAALKKGIIGGVKVHVDRLQTLISGAVVEQLDFLRISDTEELPEFKSFEELEPPKHSKVKRQSSTPSAPELGQQPDVNISEWKDKPTHEILQKLNDCSCLASQAILLGILLKREGPNFITKEGTVSDHIERVYRRAGSQKLWLAVRYGAAFTQKFSSSIAPHITTFLVHGKQVTLGAFGHEEEVISNPLSPRVIQNIIYYKCNTHDEREAVIQQELVIHIGWIISNNPELFSGMLKIRIGWIIHAMEYELQIRGGDKPALDLYQLSPSEVKQLLLDILQPQQNGRCWLNRRQIDGSLNRTPTGFYDRVWQILERTPNGIIVAGKHLPQQPTLSDMTMYEMNFSLLVEDTLGNIDQPQYRQIVVELLMVVSIVLERNPELEFQDKVDLDRLVKEAFNEFQKDQSRLKEIEKQDDMTSFYNTPPLGKRGTCSYLTKAVMNLLLEGEVKPNNDDPCLIS
B3: human muscle phosphorylase kinase γ subunit (PHKG1) (enzyme)
chain: not shown

Legend:
[1] = molecular target: T1, human muscle phosphorylase kinase α …; experiment: cross-linking
[2] = molecular target: B2; experiment: cross-linking
cryo-EM structure = molecular target: the molecule itself; experiment: cryo-EM structure
[3] = molecular target: human calmodulin, δ subunit of phosphorylase kinase (human, UniProt P0DP25 1-149); experiment: cryo-EM structure
[4] = molecular target: B1; experiment: cross-linking

Binder: B1
binding result [1]: binds | binding result [2]: binds

Binder: B2
stoichiometry N (cryo-EM structure): 4

Binder: B3
binding result [3]: binds | binding result [4]: binds

From publication PMC11950179 (Nature Communications, 2025)
